Measured values: PMC10282093, “Structural basis of α1A-adrenergic receptor activation and recognition by an extracellular nanobody” (Nature Communications, 2023)
Several values for one entry are separate records, joined by “and”; a condition that tells them apart may be missing. Equal values may be shown once.

What was measured:
[1] = biological target: T1, α1AAR (Homo sapiens, UniProt P35348); assay: [3H]prazosin radioligand binding, Sf9 membranes
T1 sequence (P35348 1-370): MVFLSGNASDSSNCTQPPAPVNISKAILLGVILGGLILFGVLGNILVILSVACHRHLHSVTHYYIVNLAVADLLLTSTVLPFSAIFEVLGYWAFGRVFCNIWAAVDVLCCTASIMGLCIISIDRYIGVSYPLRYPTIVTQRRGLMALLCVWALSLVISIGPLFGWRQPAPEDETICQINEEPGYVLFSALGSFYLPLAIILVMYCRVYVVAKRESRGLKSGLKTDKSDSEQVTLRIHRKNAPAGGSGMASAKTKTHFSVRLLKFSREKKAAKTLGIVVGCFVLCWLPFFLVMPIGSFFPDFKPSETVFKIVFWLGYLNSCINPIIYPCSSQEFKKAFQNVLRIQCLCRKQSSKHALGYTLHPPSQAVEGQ
Experimental: After centrifugation, the pellet was homogenized in binding buffer and used as the membrane fraction in binding assays. […] Receptors were incubated for 1 h at room temperature with various concentrations of ligand in a total volume of 100 µl. After the reaction, the mixture was trapped on Whatman GF/B glass filters. Bound and free radioligands were separated by washing with ice-cold binding buffer. Radioactivity was measured on a MicroBeta2 liquid scintillation counter (PerkinElmer).

[2] = biological target: T2, α1AAR (Homo sapiens, UniProt P35348)
T2 sequence (P35348 1-466): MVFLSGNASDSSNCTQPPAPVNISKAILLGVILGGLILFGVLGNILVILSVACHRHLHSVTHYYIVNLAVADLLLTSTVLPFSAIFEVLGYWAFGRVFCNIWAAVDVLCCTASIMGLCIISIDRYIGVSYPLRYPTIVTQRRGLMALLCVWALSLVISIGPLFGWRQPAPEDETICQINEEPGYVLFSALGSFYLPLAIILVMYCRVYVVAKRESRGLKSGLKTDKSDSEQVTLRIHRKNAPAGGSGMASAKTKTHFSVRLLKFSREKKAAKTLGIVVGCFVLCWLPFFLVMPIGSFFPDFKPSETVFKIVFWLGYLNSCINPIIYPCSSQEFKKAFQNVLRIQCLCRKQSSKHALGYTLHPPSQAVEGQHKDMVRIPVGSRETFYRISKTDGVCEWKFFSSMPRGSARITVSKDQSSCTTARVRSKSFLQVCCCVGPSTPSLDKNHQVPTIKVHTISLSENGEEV

[3] = biological target: T2, α1AAR; assay: Glo-sensor cAMP signaling assay with engineered Gsq protein in HEK293T cells
Experimental: In brief, pGloSensor™−22F plasmid, receptor plasmid, and Gsq plasmid were transfected into HEK293T cells. At 24 h after transfection, the cells were switched into a CO2-Independent Medium (Gibco) and incubated with GloSensor^TM cAMP reagent. The mixture was then transferred to a 96-well white plate. The 96-well plate is placed at 37 °C in the dark for 1 h, then placed at room temperature in the dark for 1 h before use. […] The result curves were calculated and fitted by GraphPad Prism 9.

B1: Nb29: synthetic nanobody (single domain antibody) that binds the extracellular vestibule of α1AAR, preferentially oxymetazoline-bound (antibody, V domains shown)
VH: QVQLQESGGGLVQAGGSLRLSCAASGNISAHWKMGWYRQAPGKEREFVAGIGYANTNYADSVKGRFTISRDNAKNTVYLQMNSLKPEDTAVYYCAAYSYYRDHSYWGQGTQVTVSS
[3H]prazosin binding ([1]; Nb29 Log[M] -4): 69.5661% and 61.694% and 66.6796%
[3H]prazosin binding ([1]; Nb29 Log[M] -5): 88.6049% and 105.399% and 83.0653%
[3H]prazosin binding ([1]; Nb29 Log[M] -6): 111.871% and 107.935%
[3H]prazosin binding ([1]; Nb29 Log[M] -7): 113.212% and 110.763% and 99.0136%
[3H]prazosin binding ([1]; Nb29 Log[M] -8): 94.5235% and 106.273% and 100.209%
[3H]prazosin binding ([1]; Nb29 Log[M] -9): 103.737% and 106.273%
[3H]prazosin binding ([1]; Nb29 Log[M] -10): 99.4509% and 97.7015% and 89.1005%
pKi ([1]; Nb29 as competitor): 4.39 ± 0.40
Ki [2]: 4.9 µM
agonist activity on its own [3]: no agonist activity
effect on maximum efficacy of α1AAR activation [3]: slightly reduces
α1AAR activation (Noradrenaline %) ([3]; Nb29 alone Log[M] -4): 8.574% and 8.426% and 7.756%
α1AAR activation (Noradrenaline %) ([3]; Nb29 alone Log[M] -5): 10.7076% and 10.0868% and 10.3298%
α1AAR activation (Noradrenaline %) ([3]; Nb29 alone Log[M] -6): 8.0538% and 8.0467% and 7.523%
α1AAR activation (Noradrenaline %) ([3]; Nb29 alone Log[M] -7): 5.836% and 5.21% and 5.469%
α1AAR activation (Noradrenaline %) ([3]; Nb29 alone Log[M] -8): 4.832% and 4.868% and 5.077%
α1AAR activation (Noradrenaline %) ([3]; Nb29 alone Log[M] -9): 4.7489% and 4.768% and 4.504%
α1AAR activation (Noradrenaline %) ([3]; Nb29 alone Log[M] -10): 4.612% and 4.823% and 4.852%
α1AAR activation (Noradrenaline %) ([3]; Nb29 alone Log[M] -11): 4.776% and 4.958% and 4.729%
